The target of test [1] is SDM-Eno: enolase-1 with all seven corresponding charge-reversal mutations (bovine) (UniProt Q9XSJ4). The test is described as follows: anti-arrestin-1 (C10C10) immunoprecipitation pulldown of AlexaFluor546-labeled enolase-1; 5 µM each.
Test [2] concerns the target T1, bovine enolase-1 (bovine, UniProt Q9XSJ4 1-434, AlexaFluor-546 maleimide on reactive cysteines (pulldown assay only; unlabeled in the quench and activity assays)). In words: cell-based or functional assay.
For test [3], the target named is T1, bovine enolase-1. The test is described as follows: KI quench protection of mBBr-labeled arrestin-1; 0.25 µM arrestin-1, 5 µM (20-fold) enolase-1. How it is done: C. Quenching assay. Cysteine mutants of arrestin-1 were labeled with monobromobimane (mBBr, ThermoFisher), reacting the arrestin-1 protein with 100-fold molar excess of the fluorescent label for two hours at room temperature. The unreacted label was removed by dialyzing against three sequential changes of 500-volumes of LAP200 buffer. […] Fluorescence quenching of the mBBr fluorophore was performed using 0.25 μM mBBr-labeled arrestin-1 with 100 mM potassium iodide in the presence or absence of 5 μM bovine enolase-1 that had been heterologously expressed and purified as previously described for arrestin-1, monitoring fluorescence emission at 470 nm. To determine the degree to which enolase-1 shielded a residue from quenching by potassium iodide, a protection factor was calculated as follows: […]
C. Mapping interaction of arrestin-1 with enolase-1. […] The fluorescence emission of the mBBr-labeled arrestin-1 with and without potassium iodide was measured to determine the range of quenching by KI. The fluorescence emission quench by KI with and without enolase-1 was then measured. A quench protection factor was calculated as described in the experimental procedures (Table 2). […] When mapped onto the surface of the arrestin-1 structure, these residues largely mapped to a single surface along the “bottom” of the arrestin protein (FIG. 2B).

Test [4] addresses T1, bovine enolase-1. The test is described as follows: anti-arrestin-1 (C10C10) immunoprecipitation pulldown of AlexaFluor546-labeled enolase-1; 5 µM each. How it is done: E. Immunoprecipitation/Enolase Pulldown assay. The interaction between arrestin-1 and enolase-1 was assessed by using anti-arrestin-1 antibody to immunoprecipitate the arrestin-1-enolase-1 complex in which the enolase-1 was fluorescently labeled with AlexaFluor546. For this assay, 1.5 mg of Protein G-coated magnetic beads (DynaBeads, ThermoFisher), were coated with 10 μg of purified C10C10 anti-arrestin-1 monoclonal antibody (Donoso et al. (1990) S-antigen: preparation and characterization of site-specific monoclonal antibodies. Curr Eye Res 9, 343-355). Enolase-1 was labeled on its reactive cysteines with AlexaFluor-546 maleimide (ThermoFisher), reacting the enolase-1 with 100-fold molar excess of the fluorescent label. The fluorescently labeled enolase-1 was then sequentially dialyzed in LAP200^N buffer to remove any unreacted label. For the immunoprecipitation of the arrestin-1-enolase-1 complex, 5 μM arrestin-1 (or arrestin-1 variant) was mixed with 5 μM enolase-1-Alexa546 in LAP200^N in a 200 μL final volume for 2 h at 4° C., to which 10 μg of anti-arrestin-1 antibody on magnetic beads was subsequently added for 16 h with gentle rotation. The beads were magnetically captured, washed ten times with LAP200^N buffer, and then eluted with 0.1 M glycine (pH 2.5). After neutralizing the pH with 0.1 volume 1.5 M Tris base (pH 8.5), the fluorescence of the captured enolase-1-Alexa546 was measured, exciting fluorescence at 530 nm, and measuring average emission at 570-575 nm with a dual-detector fluorimeter (QM-1 steady state fluorescence spectrophotometer, Photon Technologies Inc).
The charge-pair interactions identified in example 1 were selected to further investigate the modeled arrestin-1/enolase-1 interaction. Seven charged-pair interactions (Table 3 and FIG. 4A) were identified from the model as having the closest interactions. […] Following heterologous expression and purification, each arrestin-1 mutant was then assessed for its interaction with enolase-1, using an anti-arrestin-1 immunoprecipitation assay to pulldown fluorescently labelled enolase-1.

The target of test [5] is T1, bovine enolase-1. The test is described as follows: titration of enolase-1 (0-12.5 µM) on 0.25 µM H10C-mBBr, KI quench protection. An excerpt:
FIGS. 1A-1B. Graph illustrating optimization of fluorescence quench and quench protection.
B. Enolase concentration. The concentration of enolase-1 that could provide protection of mBBr fluorescence from quenching by the KI was then titrated. […] 90% quench protection was selected as the criterion value, which corresponded to a 20-fold molar excess of enolase-1 to arrestin-1.

Residue numbers refer to the chain shown, from its start. In names and notes the source's numbering stands.

T1 sequence (Q9XSJ4 whole entry): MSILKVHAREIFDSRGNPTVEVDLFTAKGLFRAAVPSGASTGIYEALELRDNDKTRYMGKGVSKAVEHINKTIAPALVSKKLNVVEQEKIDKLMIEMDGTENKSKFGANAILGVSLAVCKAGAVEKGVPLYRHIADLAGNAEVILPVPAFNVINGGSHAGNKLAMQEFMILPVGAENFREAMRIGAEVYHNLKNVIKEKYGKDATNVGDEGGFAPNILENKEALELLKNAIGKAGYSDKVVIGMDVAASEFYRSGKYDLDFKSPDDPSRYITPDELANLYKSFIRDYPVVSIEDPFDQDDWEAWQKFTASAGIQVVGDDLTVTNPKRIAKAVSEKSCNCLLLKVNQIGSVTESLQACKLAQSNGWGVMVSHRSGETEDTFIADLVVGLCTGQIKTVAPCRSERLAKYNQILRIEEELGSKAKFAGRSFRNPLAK
Chain of SDM-Eno: enolase-1 with all seven corresponding charge-reversal mutations (bovine) (Q9XSJ4 whole entry, change not shown): as the sequence (Q9XSJ4 whole entry) above

With “bovine wild-type arrestin-1, N-terminally His(6)-tagged (from UniProt P08168 2-404)”, the decrease of pulldown compared to pulldown of wild-type enolase-1 in test [1] was above 80%.

B1: E361G arrestin-1 variant (bovine) (other)
chain: MHHHHHHKANKPAPNHVIFKKISRDKSVTIYLGKRDYIDHVERVEPVDGVVLVDPELVKGKRVYVSLTCAFRYGQEDIDVMGLSFRRDLYFSQVQVFPPVGASGATTRLQESLIKKLGANTYPFLLTFPDYLPCSVMLQPAPQDVGKSCGVDFEIKAFATHSTDVEEDKIPKKSSVRLLIRKVQHAPRDMGPQPRAEASWQFFMSDKPLRLAVSLSKEIYYHGEPIPVTVAVTNSTEKTVKKIKVLVEQVTNVVLYSSDYYIKTVAAEEAQEKVPPNSSLTKTLTLVPLLANNRERRGIALDGKIKHEDTNLASSTIIKEGIDKTVMGILVSYQIKVKLTVSGLLGELTSSEVATEVPFRLMHPQPGDPDTAKESFQDENFVFEEFARQNLKDAGEYKEEKTDQEAAMDE
On to B1, for which the “% inhibition of enolase-1 catalytic activity” value (from here on “% inhibition”) in the test with bovine enolase-1 [2] was found to be 18.3%.

B2: E361A/D362G arrestin-1 variant (bovine) (other)
chain: B1 chain with G367A, D368G
In the case of B2, the “% inhibition” value with bovine enolase-1 [2] came out at 1.3%.

B3: D362A arrestin-1 variant (bovine) (other)
chain: B1 chain with G367E, D368A
As for B3, the “% inhibition” value with bovine enolase-1 [2] turned out to be 22.2%.

B4: E361A/D362A arrestin-1 variant (bovine) (other)
chain: B1 chain with G367A, D368A
Take B4: the “% inhibition” value with bovine enolase-1 [2] turned out to be 9%.

B5: E361G/D362A arrestin-1 variant (bovine) (other)
chain: B1 chain with D368A
Take B5: the “% inhibition” value in the test with bovine enolase-1 [2] turned out to be 8.3%.

B6: D362G arrestin-1 variant (bovine) (other)
chain: B1 chain with G367E, D368G
As for B6, in the test with bovine enolase-1 [2], the “% inhibition” value is 20.7%.

B7: E361A arrestin-1 variant (bovine) (other)
chain: B1 chain with G367A
Consider B7, for which the “% inhibition” value with bovine enolase-1 [2] is 21.1%.

B8: V281C arrestin-1 (bovine, His(6), C63A/C143A) labeled with monobromobimane (other)
chain: B1 chain with C69A, C149A, V287C, G367E
modifications: monobromobimane (mBBr) on Cys 281
notes: Cysteine-substitution mutant, made in Pichia pastoris
Consider B8, for which, in the test with bovine enolase-1 [3], the “F(A+E+K) (fluorescence with enolase-1 and KI)” value was 2440; the “Pf (quench protection factor)” value came to 0.269.

B9: K28C arrestin-1 (bovine, His(6), C63A/C143A) labeled with monobromobimane (other)
chain: B1 chain with K34C, C69A, C149A, G367E
modifications: monobromobimane (mBBr) on Cys 28
notes: as for B8
As for B9, in the test with bovine enolase-1 [3], the “F(A+E+K) (fluorescence with enolase-1 and KI)” value was 17200; the “Pf (quench protection factor)” value came out at 0.732.

B10: E302C arrestin-1 (bovine, His(6), C63A/C143A) labeled with monobromobimane (other)
chain: B1 chain with C69A, C149A, E308C, G367E
modifications: monobromobimane (mBBr) on Cys 302
notes: as for B8
In the case of B10, in the test with bovine enolase-1 [3], the “F(A+E+K) (fluorescence with enolase-1 and KI)” value is 3680; the “Pf (quench protection factor)” value was found to be 0.772.

B11: E361K arrestin-1 (bovine, His(6)-tagged charge-reversal mutant) (other)
chain: B1 chain with G367K
As to B11, in the test with bovine enolase-1 [4], the “reduction of enolase-1 pulldown relative to wild-type arrestin-1” value is around 25%.

B12: R189C arrestin-1 (bovine, His(6), C63A/C143A) labeled with monobromobimane (other)
chain: B1 chain with C69A, C149A, R195C, G367E
modifications: monobromobimane (mBBr) on Cys 189
notes: as for B8
For B12, in the test with bovine enolase-1 [3], the “F(A+E+K) (fluorescence with enolase-1 and KI)” value came to 11100; the “Pf (quench protection factor)” value is 0.467.

B13: V94C arrestin-1 (bovine, His(6), C63A/C143A) labeled with monobromobimane (other)
chain: B1 chain with C69A, V100C, C149A, G367E
modifications: monobromobimane (mBBr) on Cys 94
notes: as for B8
In the case of B13, in the test with bovine enolase-1 [3], the “F(A+E+K) (fluorescence with enolase-1 and KI)” value turned out to be 1900; the “Pf (quench protection factor)” value is 0.062.

B14: E50C arrestin-1 (bovine, His(6), C63A/C143A) labeled with monobromobimane (other)
chain: B1 chain with E56C, C69A, C149A, G367E
modifications: monobromobimane (mBBr) on Cys 50
notes: as for B8
Consider B14, for which, in the test with bovine enolase-1 [3], the “F(A+E+K) (fluorescence with enolase-1 and KI)” value is 8140; the “Pf (quench protection factor)” value came out at 0.297.

B15: D362C arrestin-1 (bovine, His(6), C63A/C143A) labeled with monobromobimane (other)
chain: B1 chain with C69A, C149A, G367E, D368C
modifications: monobromobimane (mBBr) on Cys 362
notes: as for B8
For B15, in the test with bovine enolase-1 [3], the “F(A+E+K) (fluorescence with enolase-1 and KI)” value turned out to be 5490; the “Pf (quench protection factor)” value came to 1.2.

B16: D362K arrestin-1 (bovine, His(6)-tagged charge-reversal mutant) (other)
chain: B1 chain with G367E, D368K
As to B16, the “reduction of enolase-1 pulldown relative to wild-type arrestin-1” value with bovine enolase-1 [4] is around 25%.

B17: E218C arrestin-1 (bovine, His(6), C63A/C143A) labeled with monobromobimane (other)
chain: B1 chain with C69A, C149A, E224C, G367E
modifications: monobromobimane (mBBr) on Cys 218
notes: as for B8
As to B17, in the test with bovine enolase-1 [3], the “F(A+E+K) (fluorescence with enolase-1 and KI)” value was determined as 9500; the “Pf (quench protection factor)” value worked out at 1.08.

B18: R29E arrestin-1 (bovine, His(6)-tagged charge-reversal mutant) (other)
chain: B1 chain with R35E, G367E
As to B18, the “reduction of enolase-1 pulldown relative to wild-type arrestin-1” value in the test with bovine enolase-1 [4] is around 25%.

B19: H10C arrestin-1 (bovine, His(6), C63A/C143A) labeled with monobromobimane (other)
chain: B1 chain with H16C, C69A, C149A, G367E
modifications: monobromobimane (mBBr) on Cys 10
notes: Cysteine-substitution mutant, made in Pichia pastoris; also called H10C-mBBr
Regarding B19, in the test with bovine enolase-1 [3], the “F(A+E+K) (fluorescence with enolase-1 and KI)” value was determined as 10300; the “Pf (quench protection factor)” value worked out at 0.792. Moreover, the “quench protection at 20-fold molar excess of enolase-1” value with bovine enolase-1 [5] came to 90%.

B20: K166C arrestin-1 (bovine, His(6), C63A/C143A) labeled with monobromobimane (other)
chain: B1 chain with C69A, C149A, K172C, G367E
modifications: monobromobimane (mBBr) on Cys 166
notes: as for B8
On to B20, for which, in the test with bovine enolase-1 [3], the “F(A+E+K) (fluorescence with enolase-1 and KI)” value was 1040; the “Pf (quench protection factor)” value was determined as 0.026.

B21: K267C arrestin-1 (bovine, His(6), C63A/C143A) labeled with monobromobimane (other)
chain: B1 chain with C69A, C149A, K273C, G367E
modifications: monobromobimane (mBBr) on Cys 267
notes: as for B8
On to B21, for which, in the test with bovine enolase-1 [3], the “F(A+E+K) (fluorescence with enolase-1 and KI)” value amounted to 2850; the “Pf (quench protection factor)” value was 0.484.

B22: R37C arrestin-1 (bovine, His(6), C63A/C143A) labeled with monobromobimane (other)
chain: B1 chain with R43C, C69A, C149A, G367E
modifications: monobromobimane (mBBr) on Cys 37
notes: as for B8
For the molecule B22, in the test with bovine enolase-1 [3], the “F(A+E+K) (fluorescence with enolase-1 and KI)” value amounted to 16600; the “Pf (quench protection factor)” value came to 0.564.

B23: E361G/D362G arrestin-1 variant (bovine, His(6)-tagged) (other)
chain: B1 chain with D368G
In the case of B23, the “% inhibition” value with bovine enolase-1 [2] came out at 0.7%.

B24: S210C arrestin-1 (bovine, His(6), C63A/C143A) labeled with monobromobimane (other)
chain: B1 chain with C69A, C149A, S216C, G367E
modifications: monobromobimane (mBBr) on Cys 210
notes: as for B8
With B24, in the test with bovine enolase-1 [3], the “F(A+E+K) (fluorescence with enolase-1 and KI)” value was 8720; the “Pf (quench protection factor)” value turned out to be 0.618.

B25: K53C arrestin-1 (bovine, His(6), C63A/C143A) labeled with monobromobimane (other)
chain: B1 chain with K59C, C69A, C149A, G367E
modifications: monobromobimane (mBBr) on Cys 53
notes: as for B8
Take B25: in the test with bovine enolase-1 [3], the “F(A+E+K) (fluorescence with enolase-1 and KI)” value stood at 11000; the “Pf (quench protection factor)” value turned out to be 0.314.
